Results as given in paper PMC6689051.

Key:
Details in all cases: 10 mM Tris-HCl pH 7.5, 50 mM KCl, 10 mM MgCl2 (10.1 mM MgCl2 + 0.1 mM EDTA), 23 C; nitrocellulose filter binding, 2 nM-2 uM Fab, 30 min
P0 = assay: method not stated in excerpt
[1] = system: best Fab clone from YSGR library (unnamed) (synthetic (phage display, humanized Fab4D5 framework; expressed in E. coli)); assay: filter binding
[2] = system: Fab HAVx (synthetic (phage display, humanized Fab4D5 framework, YSGRKX library; expressed in E. coli)), PDB:6MWN_2+PDB:6MWN_3; assay: filter binding

“GGCAAACAUCAUUUGGCCUUAAAUGGGAUUCUGUGAGAGGGGAUCCCUCCAUUGACAGCUGGACUGUUCUUUGGGGCCUUAUGUGGUGUUUG [HAV dV (HAV593-684)]” showed a Kd (P0) of 220 nM, a Kd [1] of 290 nM and a Kd [2] of 44 nM.

With “GGCAAACAUCAUUUGGCCUUAAAUGGGAUUCUGUGAGAGGGGAUCCCUCCAUUGACAGCUGGACUGUUCUUUGGGGCCUUAGUGGUGUUUG [HAV dV delU672]” the Kd [2] was greater than 1000 nM.

HAV593-706 showed a Kd [2] of 49 nM.

In the case of “GGCAAACAUCAUUUGGCCUUAAAUGGGAUUCUGUGAGACGGGAUCCCUCCAUUGACAGCUGGACUGUUCUUUGGGGCCUUAUGUGGUGUUUG [HAV dV G631C]”, the Kd [2] is reported as 58 nM.

Substance HAV593-720 has a Kd [2] of 47 nM.

“GGCAAACAUCAUUUGGCCUUAAAUGGGAUUCUGUGAGAGGGGAUCCCUCCAUUGACAGCUGGACUGUUCUUUGGGGCCUAUGUGGUGUUUG [HAV dV delU674]” showed a Kd [2] of 176 nM.
